Here are results for two molecules from US20230406927A1 (REGENTS OF THE UNIVERSITY OF MINNESOTA, published 2023).

The target in assay [1] is T1, CD3ε receptor on the surface of T cells (human, UniProt P07766 23-207).
T1 construct: whole, on cells; The target stood on primary T cells, where CD3ε is part of the TCR/CD3 complex; also called human CD3ε; CD3 epsilon chain
The assay is described as follows: dose-dependent titration by flow cytometry on T cells isolated from healthy donor blood; apparent KD. As to the method:
(§1) The apparent affinity of the fusion proteins was determined using flow cytometry with T cells isolated from healthy donor blood.

In assay [2] the target is T1, CD3ε receptor on the surface of T cells. The assay is described as follows: ratio of apparent KD values from the flow cytometry titration on T cells; reference is unmasked anti-CD3-1DD. The procedure:
as §1
A general note: In flow cytometry, cells or beads pass a laser one at a time.

T1 sequence (P07766 23-207): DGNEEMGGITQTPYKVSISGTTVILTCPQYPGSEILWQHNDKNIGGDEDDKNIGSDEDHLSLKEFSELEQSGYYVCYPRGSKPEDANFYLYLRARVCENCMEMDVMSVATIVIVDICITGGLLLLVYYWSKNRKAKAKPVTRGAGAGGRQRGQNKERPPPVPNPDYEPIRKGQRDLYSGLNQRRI

B1: anti-CD3-1DD fusion protein (VHH)
chain: MGHHHHHHEVQLLEEVQLVESGGGLVQPGGSLRLSCAASGFTFDDYGMSWVRQAPGKWLEWVSDISWNGGSTYYADSVKGRFTISRDNAENTLYLQMNSLKPDDTAVYYCAKMGEGGWGANDYWGQGTQVTVSSGGGASGGGGSGGGGSGISLIAALAVDRVIGMENAMPWNLPADLAWFKRNTLNKPVIMGRHTWESIGRPLPGRKNIILSSQPGTDDRVTWVKSVDEAIAAAGDVPEIMVIGGGRVYEQFLPKAQKLYLTHIDAEVEGDTHFPDYEPDDWESVFSEFHDADAQNSHSYSFEILERRGGISLIAALAVDRVIGMENAMPWNLPADLAWFKRNTLNKPVIMGRHTWESIGRPLPGRKNIILSSQPGTDDRVTWVKSVDEAIAAAGDVPEIMVIGGGRVYEQFLPKAQKLYLTHIDAEVEGDTHFPDYEPDDWESVFSEFHDADAQNSHSYSFEILERRGGGLKDYKDDDDK
notes: Anti-CD3 nanobody fused to an E. coli DHFR dimer (1DD); also called αCD3-1DD; anti-CD3-DHFR2 fusion protein
For B1, the Kd in assay [1] turned out to be 100 nM.

B2: hHINT1-anti-CD3-1DD fusion protein (VHH)
chain: MGHHHHHHMADEIAKAQVARPGGDTIFGKIIRKEIPAKIIFEDDRSLAFHDISPQAPTHFLVIPKKHISQISVAEDDDESLLGHLMIVGKKSAADLGLNKGYRMEVNEGSDGGQSVYHVHLHVLGGRQMHWPPGGGSGGGPLGVRGSGGELEVQLLEEVQLVESGGGLVQPGGSLRLSCAASGFTFDDYGMSWVRQAPGKWLEWVSDISWNGGSTYYADSVKGRFTISRDNAENTLYLQMNSLKPDDTAVYYCAKMGEGGWGANDYWGQGTQVTVSSGGGASGGGGSGGGGSGISLIAALAVDRVIGMENAMPWNLPADLAWFKRNTLNKPVIMGRHTWESIGRPLPGRKNIILSSQPGTDDRVTWVKSVDEAIAAAGDVPEIMVIGGGRVYEQFLPKAQKLYLTHIDAEVEGDTHFPDYEPDDWESVFSEFHDADAQNSHSYSFEILERRGGISLIAALAVDRVIGMENAMPWNLPADLAWFKRNTLNKPVIMGRHTWESIGRPLPGRKNIILSSQPGTDDRVTWVKSVDEAIAAAGDVPEIMVIGGGRVYEQFLPKAQKLYLTHIDAEVEGDTHFPDYEPDDWESVFSEFHDADAQNSHSYSFEILERRGGGLKDYKDDDDK
notes: Masked form; also called hHINT1-αCD3-1DD; HINT1-αCD3-1DD
With B2, the Kd in assay [1] is more than 4000 nM. In addition, the “fold reduction of binding affinity against anti-CD3-1DD” value in assay [2] is approximately 40 fold.
